Laboratory results as given in the DeepSol protein solubility set.

Assay: soluble on expression in E. coli; label from the status in PepcDB or PDB records

Sequence | soluble on expression in E. coli
MPSDLIPLIELHQVSKTFGKPVAEHSLQGLLQRLHLTRPKPVTHAVDRVDLRIMRGEVVGLVGESGCGKSTLGRMVAGLLPVSSGVASVDGKPLDSLTTQERKALRLKVQMIFQDPSSSLNPRLRVDRIVGEGALLHGLTDRKGADDYVSAQLQRAGLNPQLRQRYPHQFSGGQRQRIGIARALAVQPELLVCDESVAALDVSIQAQILNLFMDLRDELGLTYLFISHDLGVVEHLCDRVVVMYLGRVVETASVDDLFARANHPYTQALLAQIPRFDIRSTRYDAIQGEIPSPLNPPTGCHFHPRCPHAMARCREEVPALREVSPNHQSACHLNDQR | not soluble
GHMEELNIDFDVFKKRIELLYSKYNEFEGSPNSLLFVLGSSNAENPYQKTTILHNWLLSYEFPATLIALVPGKVIIITSSAKAKHLQKAIDLFKDPESKITLELWQRNNKEPELNKKLFDDVIALINSAGKTVGIPEKDSYQGKFMTEWNPVWEAAVKENEFNVIDISLGLSKVWEVKDVNEQAFLSVSSKGSDKFMDLLSNEMVRAVDEELKITNAKLSDKIENKIDDVKFLKQLSPDLSALCPPNYKFNFDLLDWTYSPIIQSGKKFDLRVSARSTNDQLYGNGCILASCGIRYNNYCSNITRTFLIDPSEEMANNYDFLLTLQKEIVTNILKPGRTPKEVYESVIEYIEKTKPELVPNFTKNIGSLIGLEFRDSNFILNVKNDYRKIQRGDCFNISFGFNNLKDSQSANNYALQLADTVQIPLDETEPPRFLTNYTKAKSQISFYFNNEEEDNNKKKSSPATKV | soluble
MSLNFIDEFRDKESILALKKLIEQELKNPINIMEICGGHTHSIMKYALPSILPKEINFIHGPGCPVCVMPRVRIDTAIKLASMKDTIFCTLGDLLRVPGSEISLLDLRAKGADVRALYSPLEVLEIAKQNLNKNIIFFAIGFETTTPMSALLLQKVIEEKINNVFFHINHITVPAPVEAIMNDENVKINAFLGPSHVSVITGYGIYEPLAAKFKTPIAVSGFEPVDILESVLNIIKQSNEGTFKVYNQYKRAVSKEGNVKAQNLVKKYFRVCDFEFRGLGLIKNGGLELKEEFSAYDASKKFDCTVQSKNESKACICGQILRGLAKPYDCKVFGKACTPRSPIGSCMVSGEGACAAYYKYSKVNAEGHHHHHH | soluble
MGSDKIHHHHHHMNPSSRHPQHSDTAASGASEGVPRRYASGRQYELRRGDALAVVTELAAGLRLYSRGGVQLTETYGDGDIPPGATGITLAPWANRVEDGVWYLNGKKQQLDITEVSRNNASHGLLRNAAYELVDEAEFSVTLEAPVFPQHGYPFLVRHRVQYLLAEDLGLVVRQTLLNDSQAPAPFVLGAHPYLRLGDVPASDLVLTVGTGSRLVADERLIPRSSEQVDGATDLRGGRTVSELDIDVAYTDLTFDGGVARQTLKASDGRSVSLWQDENCSYVHVFVTDQYPGRAKAVAIEPMTGPANAFNSGDGLRWLPAGESFTMTWGISASL | not soluble
MRVDEFLKERNINVGDFVRITKEEDGEEVTYEGYIMPPYELSAGDTLVLKLENGYNIGIALEKIRRIEVLERAKVKPEVHFEALIEGKPGLPEVTIIGTGGTIASRIDYETGAVYPAFTAEELAKALPEIFEVANVKPKLLFNIFSEDMKPKHWVKIAHEVAKALNSGDYGVVVAHGTDTMGYTAAALSFMLRNLGKPVVLVGAQRSSDRPSSDAAMNLICSVRMATSEVAEVMVVMHGETGDTYCLAHRGTKVRKMHTSRRDAFRSINDVPIAKIWPNGEIEFLRKDYRKRSDEEVEVDDKIEEKVALVKVYPGISSEIIDFLVDKGYKGIVIEGTGLGHTPNDIIPSIERAVEEGVAVCMTSQCIYGRVNLNVYSTGRKLLKAGVIPCEDMLPETAYVKLMWVLGHTQNLEEVRKMMLTNYAGEITPYTRFDTYLR | soluble
MTGPTTDADAAVPRRVLIAEDEALIRMDLAEMLREEGYEIVGEAGDGQEAVELAELHKPDLVIMDVKMPRRDGIDAASEIASKRIAPIVVLTAFSQRDLVERARDAGAMAYLVKPFSISDLIPAIELAVSRFREITALEGEVATLSERLETRKLVERAKGLLQTKHGMTEPDAFKWIQRAAMDRRTTMKRVAEVVLETLGTPKDT | soluble
MAKLITLGEILIEFNALSPGPLRHVSYFEKHVAGSEANYCVAFIKQGNECGIIAKVGDDEFGYNAIEWLRGQGVDVSHMKIDPSAPTGIFFIQRHYPVPLKSESIYYRKGSAGSKLSPEDVDEEYVKSADLVHSSGITLAISSTAKEAVYKAFEIASNRSFDTNIRLKLWSAEEAKREILKLLSKFHLKFLITDTDDSKIILGESDPDKAAKAFSDYAEIIVMKLGPKGAIVYYDGKKYYSSGYQVPVEDVTGAGDALGGTFLSLYYKGFEMEKALDYAIVASTLNVMIRGDQENLPTTKDIETFLREMKK | soluble
MLHEIPKSEILKELKRIGAKRVLIQSPEGLRREAEELAGFLEENNIEVFLHGEINYGACDPADREAKLVGCDALIHLGHSYMKLPLEVPTIFVPAFARVSVVEALKENIGEIKKLGRKIIVTTTAQHIHQLKEAKEFLESEGFEVSIGRGDSRISWPGQVLGCNYSVAKVRGEGILFIGSGIFHPLGLAVATRKKVLAIDPYTKAFSWIDPERFIRKRWAQIAKAMDAKKFGVIVSIKKGQLRLAEAKRIVKLLKKHGREARLIVMNDVNYHKLEGFPFEAYVVVACPRVPLDDYGAWRKPVLTPKEVEILLGLREEYEFDEILGGPRESDEPFGISIHSTRLEHHHHHH | not soluble
MKTLSTMATLLALSLPVMAQECASDIMRTAPNLRYVYSTQGTVKDLHTGLTWMRCTFGKEWNAEQGRCTGQAQPLRWQAALQEVQAINHPGSRHRLHQFAGVKQWRMPNIKELSSLTEQACFAPAANETAFASGLVTEVGNYAAYLWSNTTRIEREEAWTWDAINGEIYAYSIHAHEMGLLLVADELEHHHHHH | soluble
MSSSTSSVESVEDESCSNECSASFTFDTNNNSRGNNQVNELAEETHMKLSITPTRESFSLSQLERIITIGKGTFGRVELARDKITGAHYALKVLNIRRVVDMRQTQHVHNEKRVLLQLKHPFIVKMYASEKDSNHLYMIMEFVPGGEMFSYLRASRSFSNSMARFYASEIVCALEYIHSLGIVYRDLKPENLMLSKEGHIKMADFGFAKELRDRTYTICGTPDYLAPESLARTGHNKGVDWWALGILIYEMMVGKPPFRGKTTSEIYDAIIEHKLKFPRSFNLAAKDLVKKLLEVDRTQRIGCMKNGTQDVKDHKWFEKVNWDDTLHLRVEPPIVPTLYHPGDTGNFDDYEEDTTGGPLCSQRDRDLFAEW | not soluble
MDEQAVSTSMKTVYIRIYTSVLYTSYTKPGNWSAVDRSAWSVSCSNVYADDDAKYGAHLAIDGEINTTWFTWGVANAGECWWNTVLDRPVTLTGFSVTKQSAYGSGYNLRSAEIKVRKEGETEWVTYPRVLTFRNFKGADPQYAAIEPPIPNVKEFRINCLTPDNYTGFAEINLYVKQLEHHHHHH | soluble
MSGARLHTLLPELTTRQPVMVVGAAVIDVIADAYALPWRGCDIELKQQSVNVGGCALNIAVALKRLGIEAGNALPLGQGVWAEIIRNRMAKEGLISLIDNAESDNGWCLALVEPDGERTFMSFSGVENQWNRQWLARLTVAPGNLLYFSGYQLASPCGELLVEWLEKLQDVTPFIDFCPRIGDIPDALLARIMACRPLVSLNRQEAEIAAERFALSAEITTLGKQWQEKFAAPLIVRLDKEGAWYFSNDASGCIPAFPTQVVDTIGAGDSHAGGVLAGLASGLPLADAVLLGNAVASWVVGHRGGDCAPTREELLLAHKNV | not soluble
MIARKRRARTIHSRYPIGIYGSIVMTDIAQLLGKDADNLLQHRCMTIPSDQLYLPGHDYVDRVMIDNNRPPAVLRNMQTLYNTGRLAGTGYLSILPVDQGVEHSAGASFAANPLYFDPKNIVELAIEAGCNCVASTYGVLASVSRRYAHRIPFLVKLNHNETLSYPNTYDQTLYASVEQAFNMGAVAVGATIYFGSEESRRQIEEISAAFERAHELGMVTVLWAYLRNSAFKKDGVDYHVSADLTGQANHLAATIGADIVKQKMAENNGGYKAINYGYTDDRVYSKLTSENPIDLVRYQLANCYMGRAGLINSGGAAGGETDLSDAVRTAVINKRAGGMGLILGRKAFKKSMADGVKLINAVQDVYLDSKITIA | soluble
MKIQCDVCEKAPATVICCADEAALCPQCDIEIHAANKLASKHQRLHLNSLSTKFPRCDICQEKAAFIFCVEDRALLCRDCDESIHVANSRSANHQRFLATGIKVALTSTICSKEIEKNQPEPSNNQQKANQIPAKSTSQQQQQPSSATPLPWAVDDFFHFSDIESTDKKGQLDLGAGELDWFSDMGFFGDQINDKALPAAEVPELSVSHLGHVHSYKPMKSNVSHKKPRFETRYDDDDEEHFIVPDLG | not soluble
MGERGVEMRLRIRFESAECEVELYEEWAPETVRAIADALPIKSTANRWGDEIYFTTQVAVEKEENSKDVVELGDVAYWIPGKAICLFFGKTPISDDKIRPASAVNVIGRIVNSMEGLKGVADGESVVVERA | not soluble
MTINTEVFIRRNKLRRHFESEFRQINNEIREASKAAGVSSFHLKYSQALLDRAIQREIDETYVFELFHKIKDHVLEVNEFLSMPPRPDIDEDFIDGVEYRPGRLEITDGNLWLGFTVCKPNEKFKDPSLQCRMAIINSRRLPGKASKAVIKTQ | soluble
MGSDKIHHHHHHVSKPLTGIHILVTRPSHQAGGLAGKIRAAGGEPCLFPVLEIQDISDPRPLLELIERLDEFYLAIFVSPNAVNKAMSVICAKRALPSDLKIATVGQGTARTLRRFGVSGVIVPAVRFDSEALLDMAELDRINVAGKRIIIFRGDNGRELLGETLRKRGASVEYAECYRRIRPEAEIGPLLAAWTRGEMNGVTVTSSEGLRNLWEMVGDSGRTWLENTPLFVSHERIAGVARKLGFNRVIVTAAGDDGLVAGLQDYFSGHMG | not soluble
MAHHHHHHMEAGARFPAAATPPASAGAAAVQGDAESEPDDERWSLSDGEPEAIPAKNGEPSDADVDAAMAAKGEAAELHGEGKQEEAIAKMGEALAYNPGNAMYWGMRALYHLEFNKPRAALHDANKALELNPQNVRALRVRGTVNRHLGHWEDSLKDLSAAQAIDYDDKTNETLKYVQSRATQRHKRQLARHHAEEEAAARRQEELRRQRQREAEEAAAAAEAQAAPGSMPGGLPRGFPGGMPGGMPGGMPGGMPPGMESVLQDPEIMVAMQDPEVAPKLAQMMQNPMAAMSMMNDPKVGPVMQKIMAKMMGGGGMPGGMGGMGGMGGFQGAGGMPSHRGAADGASGSTRRDDLD | not soluble
MSLQFYSVQTNTLKLATTTFNAEGSMLLSTHWTLNLGFSYNPWNFSDTRKIKHFLIEPGARYWFWQTYAGSFISMYAMGARYNVAWDGLLGGDYRYQGWGYGAGMTYGRSWLLSKRWNMEVEAGLGLLVAPYTKYRCEHCGDKVKSGTYFLPTPKLAFNLVYLFEGHHHHHH | not soluble
MGSDKIHHHHHHMQFGAKPLFENVSVKFGNGNRYGLIGANGCGKSTFMKILGNDLEPSAGQVMLEPNVRLGKLRQDQFAYEDFSVIDTVIMGHEELWAVKAERDRIYSLPEMSEADGMAVAELEVQFAEFDGYTAESRAGELLLGLGIPLEQHFGPMSAVAPGWKLRVLLAQALFSDPDVLLLDEPTNHLDINTIRWLEGVLTARNSTMIIISHDRHFLNSVCTHMADLDYGELRLFPGNYDEYMTAAEQARERLLSDNAKKKAQIAELQSFVSRFSANASKAKQATSRARQIDKIQLEEVKPSSRVSPFIRFEQYKKLHRQAVTVENISKGYDGKPLFKGLSLQVEAGERVAIIGPNGIGKTTLLRCLVGDLPVDGGEVKWTDSADVGYFAQDHADDFADDMSLFDWMAQWTQGGEQLVRGTLGRMLFSNDEIKKSVKVISGGEQGRMLFGRLILKRPNVLVMDEPTNHLDMESIEALNLALDNYPGTLIFVSHDREFVSSLATRIIELGENGVTDFSGSYDDYLRSQGVIV | not soluble
MPEEESIDIKFRLYDGSDIGPFRYSAASTVDFLKQRVVSDWPKGKTVVPKGINEVKLISSGKILENNKTVGQCKTPFGDIAGGVIVMHVVVQPSLAKSKTEKKVDKAPKAVICTCTIL | soluble
